In US20240026407A1, “MODIFICATION OF SAPONINS” (GLAXOSMITHKLINE BIOLOGICALS SA, priority 2020, published 2024):
Each block holds one molecule with its values, some of them ahead of it.

Columns and labels:
[1] = Example 10: deglucosylation of saponins in crude bark extract (50%) using WT and engineered glucosidases G1 to G5; format: biochemical, Quillaja saponaria; details: 7 h, 50% CBE, 35 degC; for % Right Peak: starting CBE 26; for % Left Peak: starting CBE 30; for % Middle Peak: starting CBE 44
Procedure: Lyophilised powders from clarified cell lysate expressing glucosidases (from Example 8 WT glucosidase and engineered glucosidase polypeptides G1 to G5) and rhamnosidases (from Example 9 WT rhamnosidase and engineered rhamnosidase polypeptides R1 to R5) were dissolved in 200 mM sodium acetate aqueous solution at pH 5.8 to prepare the enzyme solutions at 4 fold the final reaction concentration as shown in Tables 19 and 20.
Each glucosidase solution was combined with an equal volume of 200 mM sodium acetate aqueous solution at pH 5.8 and separately with an equal volume of 200 mM sodium acetate aqueous solution at pH 5.8 containing 2 mg/ml rhamnosidase R5. This is a sufficient loading of rhamnosidase to effect complete hydrolysis of the relevant rhamnose moiety within 4 hours.
CBE was adjusted to pH of 6.0 to 6.2 with 2M sodium hydroxide and an equal volume added to the enzyme solution to prepare the reaction mix (i.e. 50% CBE concentration in reaction mix) and the concentration of glucosidase and/or rhamnosidase is shown in Tables 19 and 20. The reaction mix was heated to 35 degC for the time indicated in Tables 19 and 20, after which the reaction was quenched by addition of an equal volume of MeCN containing 2% acetic acid and shaken at room temperature for 10 mins prior to centrifugation (10 min, 4 degC) to remove particulates. Samples were analysed by UV HPLC using method of Experiment 4-4.
The change in composition of the Left, Middle and Right peaks is shown in Tables 19 and 20. The composition changes by the action of the enzymes depending on the presence or absence of the partner enzyme. The extent of reaction is proportional to the enzyme concentration and the reaction time under these conditions. The tables show data for enzyme concentrations and the reaction times providing for equivalent extents of reaction. The improvement resulting from the mutations introduced for each variant is equal to the fold change in enzyme concentration×time (i.e. fold improvement=(enzyme concentration×time) for preceding variant÷(enzyme concentration×time) for later variant). A cumulative fold improvement over the original enzyme variant is calculated by the product of the individual fold improvements.

[2] = Example 8: screening of glucosidase variants for deglycosylation of saponins in crude bark extract (FIOP); format: biochemical, Quillaja saponaria; details: for Cumulative FIOP (cf WT): estimate; for FIOP: fold improvement over parent
Procedure: Libraries of genetic variants encoding mutations in the wild type Modestobacter marinus glucosidase (SEQ ID No. 262) were prepared using molecular biology techniques, enzymes were prepared linked to an N-terminally located His-tag. Single monoclonal colonies were grown in 400 ul of expression medium and protein expressed. Cell pellets were lysed in 200 ul of the relevant buffer (Table 16)
Lysate was diluted appropriately in the relevant buffer to allow a lysate loading of the indicated % loading (1% loading corresponds to use of 2 ul original lysate in a 200 ul reaction). In some experiments a rhamnosidase was also present during the screening reaction (and also in controls, negating any impact on results).
Crude bark extract (CBE) obtained by aqueous extraction of Quillaja saponaria and containing at least 2.80 mg/ml QS-21 (by HPLC-UV). The pH of CBE was adjusted to pH 6 by dropwise addition of 2M NaOH with stirring. The relevant concentration of the relevant glucosidase was added. The appropriate relative volume of pH 6 CBE (160 ul (for 80%) or 150 ul (for 75%)) was added to each well of the reaction plate. The reaction plate was sealed and incubated at the relevant temperature with shaking overnight for between 18 and 22 hours.
The reaction plate was quenched by adding 200 uL of MeCN (2% AcOH, 1 mg/mL hexanophenone) to each well of the plates. The quenched reaction plate was re-sealed and incubated at 20 deg C. with shaking for 10 min. The reaction plate was then centrifuged (10 min, 4 degC).
200 uL was transferred from each well of the quenched plate to the corresponding wells of a fresh 96 well plate and sealed. The plate was analysed by UV HPLC with the method below:
A negative control (a lysate not expressing test enzymes) and a positive control (expressing the parent comparator—wild type or previous variant as appropriate). Fold improvement over parent (FIOP) for the glucosidase (shorter method) is calculated as follows:
% right peak=100*right peak area/(right peak area+left peak area)
Average % right peak area is calculated for negative controls (per plate) and subtracted from all wells to give the increase in % right peak for each well above average negative control Average increase in % right peak is calculated for positive controls per plate
FIOP=observed increase in % right peak divided by average positive control increase

[3] = glucosidase 0.39 mg/ml + rhamnosidase R5 0.5 mg/ml
[4] = glucosidase 0.39 mg/ml, no rhamnosidase
[5] = screen temp 35, pH 6, lysate loading 0.28%, CBE loading 75%, 100 mM Sodium acetate, Rham Present
[6] = glucosidase 6.25 mg/ml + rhamnosidase R5 0.5 mg/ml
[7] = glucosidase 6.25 mg/ml, no rhamnosidase
[8] = screen temp 35, pH 6, lysate loading 20%, CBE loading 80%, 100 mM Potassium phosphate, Rham None

- Cumulative Fold improvement in primary enzyme loading × time [1, 3]: 128
- Fold improvement in primary enzyme loading × time [1, 3]: 2.0
- Cumulative Fold improvement in primary enzyme loading × time [1, 4]: 128
- Fold improvement in primary enzyme loading × time [1, 4]: 2.0
B1: Variant G4: engineered glucosidase polypeptide, variant of Modestobacter marinus glucosidase SEQ ID No. 262 (protein)
chain: MNPASSTRTDTMTDTTARTDSRLTDALAALSLEQKVQLLTGRDYWNTWPIEEIGLRRILVSDGPSGVRGEVWDERDPSLNLPSATALASAWDPDIARRYGAAAAVEARRKGVDVVLGPTINLHRSPLGGRHFEAFSEDPVLTAELAAAYVTGVQDNGVGATPKHYVANDFETDRFTVDVRADERTLRELYLLAFEKAVTEARAWLVMSAYNGINGATATENDLLETPLNSEWGFDGVVVSDWTAVRSLESARSSQDLVMPGPLGPWGDALVEAVRTGAIDESVVDRKVLRILTLAQRVGALEGSPAIDPVWVEDGVALAREAAVEGTVLLENRDELPWDATSLRKVAVIGNNAAAAMTQGGGSANVLPEYTVSPLDGVRAALPDAEVSYSLGAVVQDGLVELPLAELTNPVTGGPGLRARFLTADGAELFGEDRRKSVLVYQGGDAPIAAAATYELTARWTPTESQTVRLGFFCFGAAQLYVDGELLVESDLQPSGTDLGAAFMNPLTASAEVELVAGKPVDVRLVHDLSAKEGFAAHALILQLGTEPAEVDEDALIAEAAEAAEAADVVLVVVGTNSIVESEGYDRESLSLPGRQDDLVRAVVAANPRTVVLVNAGAPVLLPWRDDVAALLLGWFGGQEFGNAVADVLLGVAEPGGRLPTTWPAAEADVPVLSCTPVDGVVEYTEGIHIGYRAWLRSGATPAYWFGSGQGYTCVELTGVEAPSRARPGEIVTVSVEVANRGERDGKQVVQVYAEKPDSTVDRPVRWLVGSAPVRVPAGQTAQVEVAVPTRYLAHWAGGWQYEPGVYRLRVGTTAVELPLETTLEVSA
modifications: Seq ID No. 262 with mutations T365N, R357M, A473F, L474C, I475F, F44Y, F442Q, V263L, F541I
- % change in Left Peak [1, 3]: −28%
- % change in Middle Peak [1, 3]: −79%
- % change in Right Peak [1, 3]: 267%
- % Right Peak [1, 3]: 69%
- % Left Peak [1, 3]: 22%
- % Middle Peak [1, 3]: 9%
- % change in Left Peak [1, 4]: −22%
- % change in Middle Peak [1, 4]: −49%
- % change in Right Peak [1, 4]: 208%
- % Right Peak [1, 4]: 54%
- % Left Peak [1, 4]: 23%
- % Middle Peak [1, 4]: 23%
- Cumulative FIOP (cf WT) [2, 5]: 300
- FIOP [2, 5]: 2.4

- Cumulative Fold improvement in primary enzyme loading × time [1, 6]: 8
- Fold improvement in primary enzyme loading × time [1, 6]: 8.0
- Cumulative Fold improvement in primary enzyme loading × time [1, 7]: 8
- Fold improvement in primary enzyme loading × time [1, 7]: 8.0
B2: Variant G1: engineered glucosidase polypeptide, variant of Modestobacter marinus glucosidase SEQ ID No. 262 (protein)
chain: MNPASSTRTDTMTDTTARTDSRLTDALAALSLEQKVQLLTGRDFWNTWPIEEIGLRRILVSDGPSGVRGEVWDERDPSLNLPSATALASAWDPDIARRYGAAAAVEARRKGVDVVLGPTINLHRSPLGGRHFEAFSEDPVLTAELAAAYVTGVQDNGVGATPKHYVANDFETDRFTVDVRADERTLRELYLLAFEKAVTEARAWLVMSAYNGINGATATENDLLETPLNSEWGFDGVVVSDWTAVRSLESARSSQDLVMPGPVGPWGDALVEAVRTGAIDESVVDRKVLRILTLAQRVGALEGSPAIDPVWVEDGVALAREAAVEGTVLLENRDELPWDATSLRKVAVIGNNAAAARTQGGGSANVLPEYTVSPLDGVRAALPDAEVSYSLGAVVQDGLVELPLAELTNPVTGGPGLRARFLTADGAELFGEDRRKSVLVYFGGDAPIAAAATYELTARWTPTESQTVRLGFALIGAAQLYVDGELLVESDLQPSGTDLGAAFMNPLTASAEVELVAGKPVDVRLVHDLSAKEGFAAHALFLQLGTEPAEVDEDALIAEAAEAAEAADVVLVVVGTNSIVESEGYDRESLSLPGRQDDLVRAVVAANPRTVVLVNAGAPVLLPWRDDVAALLLGWFGGQEFGNAVADVLLGVAEPGGRLPTTWPAAEADVPVLSCTPVDGVVEYTEGIHIGYRAWLRSGATPAYWFGSGQGYTCVELTGVEAPSRARPGEIVTVSVEVANRGERDGKQVVQVYAEKPDSTVDRPVRWLVGSAPVRVPAGQTAQVEVAVPTRYLAHWAGGWQYEPGVYRLRVGTTAVELPLETTLEVSA
modifications: Seq ID No. 262 with mutation T365N
- % change in Left Peak [1, 6]: −39%
- % change in Middle Peak [1, 6]: −64%
- % change in Right Peak [1, 6]: 253%
- % Right Peak [1, 6]: 66%
- % Left Peak [1, 6]: 18%
- % Middle Peak [1, 6]: 16%
- % change in Left Peak [1, 7]: −8%
- % change in Middle Peak [1, 7]: −59%
- % change in Right Peak [1, 7]: 209%
- % Right Peak [1, 7]: 54%
- % Left Peak [1, 7]: 28%
- % Middle Peak [1, 7]: 18%
- Cumulative FIOP (cf WT) [2, 8]: 5
- FIOP [2, 8]: 5
